Experimental data taken from patent publication US12162934B2, “Gremlin-1 antagonist for the prevention and treatment of cancer” (UCB BIOPHARMA SRL, priority 2018, dated 2024).

Experiments:
[1] = molecular target: T1, BMP-2-Gremlin-1 complexes (Homo sapiens, UniProt O60565); assay: SMAD phosphorylation assay: displacement of BMP-2 from Gremlin 1-BMP complexes; type: cell-based; conditions: for Displacement of BMP-2 from Gremlin 1-BMP complexes (SMAD phosphorylation): BMP 2 50 ng/ml
T1 sequence (O60565 25-184): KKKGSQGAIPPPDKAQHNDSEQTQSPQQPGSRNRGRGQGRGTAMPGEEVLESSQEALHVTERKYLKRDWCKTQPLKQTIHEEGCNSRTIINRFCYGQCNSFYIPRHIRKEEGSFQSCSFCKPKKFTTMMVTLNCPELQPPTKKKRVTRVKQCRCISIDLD
Experimental: Experiments were again performed using lung fibroblasts from idiopathic pulmonary fibrosis patients. rhBMP-2 or rhBMP 4/7 were preincubated with rhGremlin-1 for 1 hour at room temperature. The BMP-2- or BMP4/7-Gremlin-1 complexes were incubated with different concentrations of the anti-Gremlin-1 antibodies overnight at 4° C. Antibody concentrations represent the final concentration on the plate.

human Gremlin = molecular target: T2, human Gremlin (Homo sapiens, UniProt O60565); assay: Hek-Id1 reporter gene assay: anti-Gremlin-1 antibodies restoring BMP signalling blocked by human Gremlin; type: cell-based; conditions: 10-fold excess and 80% inhibition Gremlin-1 concentration
T2 sequence (O60565 25-184): T1 sequence (O60565 25-184)
Text: The Hek Id1 reporter gene assay uses Clone 12 Hek293-Id1 reporter cells. This cell line was stably transfected with Id1 transcription factor. Id1 is a transcription factor in the BMP signalling pathway. Gremlin is known to bind BMPs prevent binding to their receptors reducing the luciferase signal from the reporter gene. Therefore, using this reporter assay, it is possible to screen anti-Gremlin antibodies and see if there are any that block the interaction of Gremlin with BMPs. A restoration of the luciferase signal is seen in these cells if there is a blocking of this interaction.
Clone 12 cells were cultured in DMEM containing 10% FCS, 1× L-Glutamine & 1× NEAA. […]
The cells were washed in PBS, lifted off using cell dissociation buffer, spun and counted before being seeded at 5×10^4/well in 70 μl (Density of 7.14×10^5/ml). […]
Post incubation, 30 μl of sample was transferred per well of assay plate and incubated for 20-24 hours before measuring luminescence signal.
Cell Steady Glo was thawed in advance at room temperature. […] Luciferase signal was detected by addition of cell steady glo reagent (100 μl) for 20 minutes on shaker at room temperature and measuring luminescence using cell titre glo protocol on Synergy 2. […]
The percentage of inhibition from dose response assays was calculated based on the maximum and minimum signals in the assay and the data fitted using 4 parameter logistical fit. […]

Vil1-Grem1 mice = assay: Vil1-Grem1 mouse polyposis model (phenotype, survival); conditions: for median survival: vehicle 242 days
rhGremlin-1 = molecular target: T3, rhGremlin-1 (Homo sapiens, UniProt O60565); assay: SMAD phosphorylation assay: restoration of p-SMAD signalling, lung fibroblasts from idiopathic pulmonary fibrosis patients; type: cell-based
T3 sequence (O60565 25-184): T1 sequence (O60565 25-184)
Experimental: Antibodies were screened using the Hek-Id1 reporter gene assay described in Example 3 and by measuring SMAD phosphorylation. SMAD1, 5 and 8 are phosphorylated upon BMP signalling. Inhibitors of Gremlin-1 therefore increase SMAD phosphorylation.
SMAD phosphorylation assays were conducted on A549 cells or on human lung fibroblasts. Phosphorylation levels were determined using MSD.
Results are shown as a percentage of SMAD phosphorylation by BMP alone (control BMP). Experiments were performed using lung fibroblasts from idiopathic pulmonary fibrosis patients. rhGremlin-1 and the anti-Gremlin-1 antibodies were preincubated for 45 minutes at room temperature. rhGremlin-1 and the anti-Gremlin-1 antibodies were then added with BMP to the cells for 30 minutes.

## Ab7326: allosteric inhibitory anti-Gremlin-1 antibody from a naïve human library; CDRs SEQ ID NOS 4 to 9; mouse IgG1 in mouse experiments
[1]; antibody 0.63 μg/ml
  Displacement of BMP-2 from Gremlin 1-BMP complexes (SMAD phosphorylation): 97.0%
[1]; antibody 1.27 μg/ml
  Displacement of BMP-2 from Gremlin 1-BMP complexes (SMAD phosphorylation): 102.8%
[1]; antibody 2.55 μg/ml
  Displacement of BMP-2 from Gremlin 1-BMP complexes (SMAD phosphorylation): 103.2%
[1]; antibody 5.1 μg/ml
  Displacement of BMP-2 from Gremlin 1-BMP complexes (SMAD phosphorylation): 100.3%
[1]; antibody 10.2 μg/ml
  Displacement of BMP-2 from Gremlin 1-BMP complexes (SMAD phosphorylation): 103.8%
[1]; antibody 20.3 μg/ml
  Displacement of BMP-2 from Gremlin 1-BMP complexes (SMAD phosphorylation): 99.4%
[1]; antibody 40.6 μg/ml
  Displacement of BMP-2 from Gremlin 1-BMP complexes (SMAD phosphorylation): 101.5%
[1]; antibody 81.3 μg/ml
  Displacement of BMP-2 from Gremlin 1-BMP complexes (SMAD phosphorylation): 103.7%
[1]; BMP-2 or BMP4/7, at much lower concentrations than comparison antibody 2484
  Displacement of already complexed BMP from Gremlin 1-BMP complexes: can displace already complexed BMP-2 or BMP4/7
Human Gremlin
  Blocking ability in the Hek-Id1 reporter gene assay: maintained blocking ability
Vil1-Grem1 mice; 30 mg/kg twice weekly for 6 weeks
  Villus ectopic crypt formation and cell fate determination (immunohistochemical staining): reversal of villus ectopic crypt formation and deranged cell fate determination
Vil1-Grem1 mice; 30 mg/kg twice weekly subcutaneous for 6 weeks
  Pan-intestinal polyposis phenotype: highly significant abrogation
Vil1-Grem1 mice; 30 mg/kg weekly subcutaneous from 6 weeks of age, prolonged dosing
  Animal lifespan: significantly prolongs animal lifespan
Vil1-Grem1 mice; Grem1 initiated polyposis models, animals treated for more than 400 days
  Adverse events: No consistent adverse events have been observed
Vil1-Grem1 mice; early stage treatment (42 days), 30 mg/kg weekly
  median survival: 540 days
Vil1-Grem1 mice; established polyposis, 30 mg/kg weekly from 5 months
  median survival: 477 days
Vil1-Grem1 mice; established polyposis, over 4 weeks of treatment
  Vil1-Grem1 intestinal phenotype at timed sacrifice: reversion of the Vil1-Grem1 intestinal phenotype
Vil1-Grem1 mice; late-stage treatment (120 days), 30 mg/kg weekly
  median survival: 519 days
rhGremlin-1; BMP 2 50 ng/ml
  Restoration of p-SMAD signalling, percentage of SMAD phosphorylation by BMP alone: 107.2%
rhGremlin-1; BMP 4 25 ng/ml
  Restoration of p-SMAD signalling, percentage of SMAD phosphorylation by BMP alone: 110.0%
rhGremlin-1; BMP4/7 50 ng/ml
  Restoration of p-SMAD signalling, percentage of SMAD phosphorylation by BMP alone: 127.0%
rhGremlin-1; BMP 7 200 ng/ml
  Restoration of p-SMAD signalling, percentage of SMAD phosphorylation by BMP alone: 108.0%
rhGremlin-1; BMP-2/7 50 ng/ml
  Restoration of p-SMAD signalling, percentage of SMAD phosphorylation by BMP alone: 128.5%
